Results as given in paper PMC9352680, “A comprehensive thermodynamic model for RNA binding by the Saccharomyces cerevisiae Pumilio protein PUF4”.

Biological target: T1, PUF4 RNA-binding domain (Saccharomyces cerevisiae, UniProt P25339 537-888)
T1 sequence: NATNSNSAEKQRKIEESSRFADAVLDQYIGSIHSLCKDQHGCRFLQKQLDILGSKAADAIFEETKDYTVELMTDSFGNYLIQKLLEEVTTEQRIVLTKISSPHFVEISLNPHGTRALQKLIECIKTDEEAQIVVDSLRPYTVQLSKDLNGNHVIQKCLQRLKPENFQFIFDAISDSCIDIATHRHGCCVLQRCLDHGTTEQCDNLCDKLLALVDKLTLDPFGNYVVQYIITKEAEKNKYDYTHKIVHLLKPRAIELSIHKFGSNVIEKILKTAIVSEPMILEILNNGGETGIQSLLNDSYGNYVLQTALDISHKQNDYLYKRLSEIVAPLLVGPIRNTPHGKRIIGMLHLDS
Assay: Mg; RNA-MaP; 20 mM Na-HEPES pH 7.4, 30 mM KOAc, 0.75 mM MgCl2, 0.1% Tween-20, 5% glycerol, 0.1 mg/mL BSA, 2 mM DTT; 25 C; 0.0125-409.6 nM protein
Conditions: tags: N-His6-TEV cleaved; C-SNAP kept, Cy3B-labelled; label: tethered on chip by stalled RNA polymerase

Binder	Kd [nM]
UCUCUUUGUAUCUGAUCUCUU (ssRNA) [Ic_S1_P4E.1_K4.1_C4.1_H4.1_A4.1_[A6C]_F4.1_[T8G]_T4.1]	76.5
Ic_S4_P4E.1_K4.1_C4.1_H4.1_A4.1_[T5C]_[T7G]_F4.1_[T8C]_T4.1 (ssRNA) RNA: UUUGACAACUGAUCGUUCUUUCUUGUACAGCAUUCUUUCUCGAUCAGUUGUCUUU	69.5
Ic_S4_P4E.1_K4.1_C4.1_H4.1_A4.1_[T5C]_[T7G]_F4.1_[A9G]_T4.1 (ssRNA) RNA: UUUGACAACUGAUCGUUCUUUCUUGUACAGUGUUCUUUCUCGAUCAGUUGUCUUU	9.03
Ic_S4_P4E.1_K4.1_C4.1_H4.1_A4.1_[T5C]_[T7G]_F4.1_[A9C]_T4.1 (ssRNA) RNA: UUUGACAACUGAUCGUUCUUUCUUGUACAGUCUUCUUUCUCGAUCAGUUGUCUUU	22.9
Ic_S4_P4E.1_K4.1_C4.1_H4.1_A4.1_[T5C]_[T7C]_F4.1_[T8G]_[A9C]_T4.1 (ssRNA) RNA: UUUGACAACUGAUCGUUCUUUCUUGUACACGCUUCUUUCUCGAUCAGUUGUCUUU	90.1
Ic_S4_P4E.1_K4.1_C4.1_H4.1_A4.1_[T5C]_[T7C]_F4.1_[T8C]_[A9G]_T4.1 (ssRNA) RNA: UUUGACAACUGAUCGUUCUUUCUUGUACACCGUUCUUUCUCGAUCAGUUGUCUUU	72
Ic_S4_P4E.1_K4.1_C4.1_H4.1_A4.1_[T5C]_[T7C]_F4.1_[T8A]_[A9G]_T4.1 (ssRNA) RNA: UUUGACAACUGAUCGUUCUUUCUUGUACACAGUUCUUUCUCGAUCAGUUGUCUUU	270
Ic_S4_P4E.1_K4.1_C4.1_H4.1_A4.1_[T5C]_[T7C]_F4.1_[T8A]_T4.1 (ssRNA) RNA: UUUGACAACUGAUCGUUCUUUCUUGUACACAAUUCUUUCUCGAUCAGUUGUCUUU	16.9
Ic_S4_P4E.1_K4.1_C4.1_H4.1_A4.1_[T5C]_[T7C]_F4.1_[A9T]_T4.1 (ssRNA) RNA: UUUGACAACUGAUCGUUCUUUCUUGUACACUUUUCUUUCUCGAUCAGUUGUCUUU	4.37
Ic_S4_P4E.1_K4.1_C4.1_H4.1_A4.1_[T5C]_[T7A]_F4.1_[T8G]_[A9C]_T4.1 (ssRNA) RNA: UUUGACAACUGAUCGUUCUUUCUUGUACAAGCUUCUUUCUCGAUCAGUUGUCUUU	700
Ic_S4_P4E.1_K4.1_C4.1_H4.1_A4.1_[T5C]_[T7A]_F4.1_[T8C]_[A9C]_T4.1 (ssRNA) RNA: UUUGACAACUGAUCGUUCUUUCUUGUACAACCUUCUUUCUCGAUCAGUUGUCUUU	99.9
UCUCUUUGUAUUUGAUCUCUU (ssRNA) [Ib_S1_P4E.1_K4.1_C4.1_H4.1_A4.1_[A6T]_F4.1_[T8G]_T4.1]	458
Ic_S4_P4E.1_K4.1_C4.1_H4.1_A4.1_[T5C]_[T7A]_F4.1_[T8C]_[A9T]_T4.1 (ssRNA) RNA: UUUGACAACUGAUCGUUCUUUCUUGUACAACUUUCUUUCUCGAUCAGUUGUCUUU	39.4
Ic_S4_P4E.1_K4.1_C4.1_H4.1_A4.1_[T5C]_[T7A]_F4.1_[T8A]_T4.1 (ssRNA) RNA: UUUGACAACUGAUCGUUCUUUCUUGUACAAAAUUCUUUCUCGAUCAGUUGUCUUU	13.8
Ic_S4_P4E.1_K4.1_C4.1_H4.1_A4.1_[T5C]_[T7A]_F4.1_[A9C]_T4.1 (ssRNA) RNA: UUUGACAACUGAUCGUUCUUUCUUGUACAAUCUUCUUUCUCGAUCAGUUGUCUUU	22.1
Ic_S4_P4E.1_K4.1_C4.1_H4.1_A4.1_[T5C]_F4.1_[T8G]_[A9C]_T4.1 (ssRNA) RNA: UUUGACAACUGAUCGUUCUUUCUUGUACAUGCUUCUUUCUCGAUCAGUUGUCUUU	14.3
Ic_S4_P4E.1_K4.1_C4.1_H4.1_A4.1_[T5C]_F4.1_[T8C]_[A9T]_T4.1 (ssRNA) RNA: UUUGACAACUGAUCGUUCUUUCUUGUACAUCUUUCUUUCUCGAUCAGUUGUCUUU	11.1
Ic_S4_P4E.1_K4.1_C4.1_H4.1_A4.1_[T5C]_F4.1_[T8A]_[A9G]_T4.1 (ssRNA) RNA: UUUGACAACUGAUCGUUCUUUCUUGUACAUAGUUCUUUCUCGAUCAGUUGUCUUU	11
Ic_S4_P4E.1_K4.1_C4.1_H4.1_A4.1_[T5C]_F4.1_[T8A]_[A9T]_T4.1 (ssRNA) RNA: UUUGACAACUGAUCGUUCUUUCUUGUACAUAUUUCUUUCUCGAUCAGUUGUCUUU	1.55
Ic_S4_P4E.1_K4.1_C4.1_H4.1_A4.1_[T5C]_F4.1_[T8A]_T4.1 (ssRNA) RNA: UUUGACAACUGAUCGUUCUUUCUUGUACAUAAUUCUUUCUCGAUCAGUUGUCUUU	2.32
Ic_S4_P4E.1_K4.1_C4.1_H4.1_A4.1_[T5C]_F4.1_[A9G]_T4.1 (ssRNA) RNA: UUUGACAACUGAUCGUUCUUUCUUGUACAUUGUUCUUUCUCGAUCAGUUGUCUUU	3.85
Ic_S4_P4E.1_K4.1_C4.1_H4.1_A4.1_[T5C]_F4.1_[A9C]_T4.1 (ssRNA) RNA: UUUGACAACUGAUCGUUCUUUCUUGUACAUUCUUCUUUCUCGAUCAGUUGUCUUU	3.55
UCUCUUUGUAUGUCAUCUCUU (ssRNA) [Ic_S1_P4E.1_K4.1_C4.1_H4.1_A4.1_[A6G]_F4.1_[T8C]_T4.1]	384
Ic_S4_P4E.1_K4.1_C4.1_H4.1_A4.1_[T5A]_[A6C]_[T7G]_F4.1_[T8G]_[A9C]_T4.1 (ssRNA) RNA: UUUGACAACUGAUCGUUCUUUCUUGUAACGGCUUCUUUCUCGAUCAGUUGUCUUU	> 2300
Ic_S4_P4E.1_K4.1_C4.1_H4.1_A4.1_[T5A]_[A6C]_[T7G]_F4.1_[T8G]_[A9T]_T4.1 (ssRNA) RNA: UUUGACAACUGAUCGUUCUUUCUUGUAACGGUUUCUUUCUCGAUCAGUUGUCUUU	1290
